This passage reports fold increase in association after CPT versus DMSO control results from article PMC4018323.

The assay has as its target GOLPH3 (endogenous) (human (endogenous in HeLa)) (UniProt Q9H4A6). Put plainly: co-IP. Conditions: remark: other sources report otherwise.

Chain of GOLPH3 (endogenous) (human (endogenous in HeLa)) (Q9H4A6 whole entry): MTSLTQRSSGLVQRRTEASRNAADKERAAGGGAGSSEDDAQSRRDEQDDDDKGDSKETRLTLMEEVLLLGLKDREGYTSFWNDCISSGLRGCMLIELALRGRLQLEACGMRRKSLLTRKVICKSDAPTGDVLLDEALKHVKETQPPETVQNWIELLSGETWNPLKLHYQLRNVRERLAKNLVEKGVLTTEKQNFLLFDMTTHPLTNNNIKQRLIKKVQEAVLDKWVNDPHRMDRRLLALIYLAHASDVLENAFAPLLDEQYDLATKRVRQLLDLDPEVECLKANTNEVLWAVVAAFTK

MYO18A (endogenous), Q92614 1-2054 registered a fold increase in association after CPT versus DMSO control of 3.7 fold.
